This assay deals with T1, RAIDD (construct or tag not stated for the experiment) (human, UniProt P78560 1-199).
T1 construct: a tag may have been present; also called RAIDD expression construct
As to the kind of experiment: in vitro binding to GST fusion protein on glutathione beads. Here is the method: In Vitro Binding Assay. […] The tagged proteins were expressed, purified, and immobilized into Ni²⁺ beads according to standard methodology. The GST-Fas and TNFR-1 fusion proteins were prepared as described previously (Chinnaiyan, A. M. et al., Cell 81:505-12 (1995)). ³⁵S-labeled proteins were obtained by in vitro transcription/translation using the TNT T7-coupled reticulocyte lysate system (Promega).
Beads were washed, boiled in SDS sample buffer, eluted proteins resolved by SDS-PAGE and visualized following autoradiography.

T1 sequence (P78560 whole entry): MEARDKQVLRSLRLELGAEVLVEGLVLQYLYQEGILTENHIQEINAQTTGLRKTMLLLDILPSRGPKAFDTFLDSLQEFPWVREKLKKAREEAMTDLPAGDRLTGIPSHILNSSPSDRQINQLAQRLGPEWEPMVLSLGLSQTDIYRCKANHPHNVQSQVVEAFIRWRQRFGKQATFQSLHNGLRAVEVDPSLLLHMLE

B1: GST-Fas fusion protein (receptor, UniProt P25445 191-335, looked up)
chain: KRKEVQKTCRKHRKENQGSHESPTLNPETVAINLSDVDLSKYITTIAGVMTLSQVKGFVRKNGVNEAKIDEIKNDNVQDTAEQKVQLLRNWHQLHGKKEAYDTLIKDLKKANLCTLAEKIQTIILKDITSDSENSNFRNEIQSLV
notes: not shown: GST
As for B1, the binding result is “no binding”.

(Values after patent US20030096288A1 (Human Genome Sciences, published 2003).)
